Data reported in US5985836A, “Alpha-1 proteinase inhibitor binding peptides” (Bayer Corporation, priority 1998, dated 1999).
Ends that are not written are not given here.

Legend:
[1] = target: T1, A1PI (Homo sapiens, UniProt P01009); assay: A1PI binding on peptide-resin column, injection of 1 mg A1PI in equilibration buffer; conditions: 1 mg A1PI in equilibration buffer
T1 construct: Human plasma is currently the only approved source of therapeutic AlPI
Procedure, shortened: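 Percent of total eluted A1PI per fraction (flowthrough, NaCl steps, 2% acetic acid) determined by A280 integration or immunonephelometry. Columns of peptide-derivatized A-Totda-Toyopearl resin (0.1 mmole/g) received 1 mg A1PI at 4 °C or 20 °C, flow 865 or 523 μl/min.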

[2] = target: T1, A1PI; assay: A1PI purification from 5 mg hSA + 1 mg A1PI on peptide column, A1PI mass balance; type: binding; conditions: A1PI, 5 mg hSA + 1 mg A1PI; for Percent Eluted by Fraction, 1M NaCl / Percent Eluted by Fraction, 2% Ac. Acid / Percent Eluted by Fraction, 3M NaCl / Percent Eluted by Fraction, Flow: relative to total eluted
Procedure, shortened: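 Mass balance by immunonephelometry of fractions from step elutions (1M NaCl, 3M NaCl, 2% acetic acid, neutralised with Tris) at 865 μl/min. Sample was a mixture of 1 mg A1PI and 5 mg hSA held 10 min on peptide-derivatised Toyopearl columns (0.1 mmole/g) at 4 °C or 20 °C.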

[3] = target: T1, A1PI; assay: Purification of A1PI from Effluent II+III on peptide column, A1PI mass balance; type: binding; conditions: A1PI, 1 ml Eff. II+III, 4° C.
Procedure, shortened: (§1)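 Run at 4° C: Effluent II+III (1 ml, 20% ethanol) loaded with a 10 min residence. Elution at 865 μl/min, in sequence 1M NaCl, 3M NaCl, 2% acetic acid; A1PI, IgA, IgG and haptoglobin accounted for in each fraction.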

[4] = target: T2, apolipoprotein alpha-1 (Apo A-1) (Homo sapiens, UniProt P02647); assay: Purification from Effluent II+III, Apo A-1 mass balance; type: binding; conditions: 1 ml Eff. II+III, 4° C.
T2 construct: Eff; II+III is a process intermediate in the Cohn plasma fractionation process; tissue Bayer Corporation (Clayton, N.C.); host or cells: plasma fraction: Cohn Effluent II+III
Procedure, shortened: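 Feed: 1 ml Eff. II+III (20% EtOH, 20-25 mg/ml hSA, ~1 mg/ml A1PI). 10 min residence, then 865 μl/min; steps 1M NaCl / 3M NaCl / 2% acetic acid; 4° C. Mass balance per fraction.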

[5] = tested on: Immunoglobulin A (IgA); assay: Purification from Effluent II+III, IgA mass balance; type: binding, human; conditions: 1 ml Eff. II+III, 4° C.
Procedure, shortened: as §1

[6] = tested on: Immunoglobulin G (IgG); assay: Purification from Effluent II+III, IgG mass balance; type: binding, human; conditions: 1 ml Eff. II+III, 4° C.
Procedure, shortened: as §1

[7] = tested on: haptoglobin (Hpt); assay: Purification from Effluent II+III, haptoglobin mass balance; type: binding, human; conditions: 1 ml Eff. II+III, 4° C.
Experimental: Sequences 1-11 and 15 were assayed with Effluent II+III (Eff. II+III). Eff. II+III is a process intermediate in the Cohn plasma fractionation process. The feed stream contains 20% (by volume) ethanol, 20-25 mg/ml hSA and approximately 1 mg/ml AlPI. The stream also contains other proteins including anti-thrombin III (AT3), immunoglobin G (IgG), immunoglobin A (IgA), apolipoprotein alpha-1 (Apo A-1), transferrin (Trf), haptoglobin (Hpt), and alpha-1 acid glycoprotein (AAG) at concentrations ranging from 0.1-1 mg/ml.
The columns were assayed using the same technique as the hSA+AlPI experiments, allowing for a 10 minute residence time followed by a constant flow rate of 865 μl/min with step elutions of 1M NaCl, 3M NaCl, and 2% acetic acid. All experiments were conducted at 4° C. The mass balances for the injection of 1 ml Eff. […] The AlPI was enriched from 3% of the total protein in the feed to upwards of 50% in the acid eluate.

[8] = target: T1, A1PI; assay: Capture and elution of active A1PI with 2M urea buffer (elastase inhibition activity assay and immunonephelometry); type: binding; conditions: 4° C.
[9] = 20° C., * Below detection limit
[10] = * as in Tables 4, 5 (below detection limit)

T1 sequence (P01009 25-418): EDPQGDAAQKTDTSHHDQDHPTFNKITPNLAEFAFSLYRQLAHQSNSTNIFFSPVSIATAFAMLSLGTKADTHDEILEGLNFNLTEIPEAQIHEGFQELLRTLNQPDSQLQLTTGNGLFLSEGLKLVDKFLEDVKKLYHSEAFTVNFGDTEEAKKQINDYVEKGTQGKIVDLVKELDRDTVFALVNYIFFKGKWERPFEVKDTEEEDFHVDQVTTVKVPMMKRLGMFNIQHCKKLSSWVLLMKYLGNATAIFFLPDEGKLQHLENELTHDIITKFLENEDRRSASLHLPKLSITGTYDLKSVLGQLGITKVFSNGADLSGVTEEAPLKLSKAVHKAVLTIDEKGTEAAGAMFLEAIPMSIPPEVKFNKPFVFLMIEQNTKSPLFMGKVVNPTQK
T2 sequence (P02647 19-267): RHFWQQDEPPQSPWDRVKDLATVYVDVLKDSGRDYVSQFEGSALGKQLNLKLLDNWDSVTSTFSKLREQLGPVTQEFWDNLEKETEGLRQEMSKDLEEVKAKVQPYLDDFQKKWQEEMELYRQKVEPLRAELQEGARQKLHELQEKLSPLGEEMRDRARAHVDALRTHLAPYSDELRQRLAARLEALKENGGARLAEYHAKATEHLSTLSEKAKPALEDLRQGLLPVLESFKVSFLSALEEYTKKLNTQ

Percent A1PI Eluted by Fraction Based on Absorbance at 280 nm, 1M NaCl ([1]; 4° C.): 74% | Percent A1PI Eluted by Fraction Based on Absorbance at 280 nm, 2% Acetic Acid ([1]; 4° C.): 26% | Percent A1PI Eluted by Fraction Based on Absorbance at 280 nm, Flowthrough ([1]; 4° C.): 0% | Percent A1PI Eluted by Fraction, 1M NaCl ([1]; 20° C.): 64% | Percent A1PI Eluted by Fraction, 2% Acetic Acid ([1]; 20° C.): 36% | Percent A1PI Eluted by Fraction, Flowthrough ([1]; 20° C.): 0% | Mass Protein per Eluate Fraction, 1M NaCl ([2]; 4° C., * Below detection limit): 0.40 mg | Mass Protein per Eluate Fraction, 2% Ac. Acid ([2]; 4° C., * Below detection limit): 0.24 mg | Percent Eluted by Fraction, 1M NaCl ([2]; 4° C.): 62% | Percent Eluted by Fraction, 2% Ac. Acid ([2]; 4° C.): 38% | Percent Eluted by Fraction, 3M NaCl ([2]; 4° C.): 0% | Percent Eluted by Fraction, Flow ([2]; 4° C.): 0% | Mass Protein per Eluate Fraction, 1M NaCl [2, 9]: 0.15 mg | Mass Protein per Eluate Fraction, 2% Ac. Acid [2, 9]: 0.37 mg | Mass Protein per Eluate Fraction, Flow [2, 9]: 0.34 mg | Percent Eluted by Fraction, 1M NaCl ([2]; 20° C.): 18% | Percent Eluted by Fraction, 2% Ac. Acid ([2]; 20° C.): 43% | Percent Eluted by Fraction, 3M NaCl ([2]; 20° C.): 0% | Percent Eluted by Fraction, Flow ([2]; 20° C.): 39% | Percent Eluted by Fraction, 1M NaCl [3]: 16% | Percent Eluted by Fraction, 2% Acetic Acid [3]: 25% | Percent Eluted by Fraction, 3M NaCl [3]: 0% | Percent Eluted by Fraction, Flow [3]: 59% | Mass Protein per Eluate Fraction, 1M NaCl [3, 10]: 0.20 mg | Mass Protein per Eluate Fraction, 2% Acetic Acid [3, 10]: 0.30 mg | Mass Protein per Eluate Fraction, Flow [3, 10]: 0.71 mg | Percent Eluted by Fraction, 1M NaCl [4]: 0% | Percent Eluted by Fraction, 2% Acetic Acid [4]: 51% | Percent Eluted by Fraction, 3M NaCl [4]: 0% | Percent Eluted by Fraction, Flow [4]: 49% | Mass Protein per Eluate Fraction, 2% Acetic Acid [4, 10]: 0.30 mg | Mass Protein per Eluate Fraction, Flow [4, 10]: 0.28 mg | Mass A1PI in Urea Eluate (mg), Activity ([8]; 1 mg A1PI, eluted with 2M urea, pH 6, elastase inhibition activity assay): 0.75 mg | Mass A1PI in Urea Eluate (mg), Nephelometry ([8]; 1 mg A1PI, eluted with 2M urea, pH 6, immunonephelometry): 0.85 mg | Specific Activity ([8]; mass of A1PI by activity assay relative to immunonephelometry, urea eluate): 0.88 mg/mg
Substance: LIVHRW
Percent Eluted by Fraction, 1M NaCl [5]: 43% | Percent Eluted by Fraction, 2% Acetic Acid [5]: 20% | Percent Eluted by Fraction, 3M NaCl [5]: 0% | Percent Eluted by Fraction, Flow [5]: 37% | Mass Protein per Eluate Fraction, 1M NaCl [5, 10]: 0.18 mg | Mass Protein per Eluate Fraction, 2% Acetic Acid [5, 10]: 0.08 mg | Mass Protein per Eluate Fraction, Flow [5, 10]: 0.15 mg | Percent Eluted by Fraction, 1M NaCl [6]: 0% | Percent Eluted by Fraction, 2% Acetic Acid [6]: 0% | Percent Eluted by Fraction, 3M NaCl [6]: 0% | Percent Eluted by Fraction, Flow [6]: 100% | Mass Protein per Eluate Fraction, Flow [6, 10]: 0.31 mg | Percent Eluted by Fraction, 1M NaCl [7]: 40% | Percent Eluted by Fraction, 2% Acetic Acid [7]: 0% | Percent Eluted by Fraction, 3M NaCl [7]: 0% | Percent Eluted by Fraction, Flow [7]: 60% | Mass Protein per Eluate Fraction, 1M NaCl [7, 10]: 0.29 mg | Mass Protein per Eluate Fraction, Flow [7, 10]: 0.43 mg
